Laboratory results as given in the supplement of paper PMC11246515.
± gives the standard deviation of the averaged measurements.

Assay: total protein half-life in vivo (active degradation + dilution); higher = more stable protein
[1] = E. coli NCM3722 delta-clpP delta-lon delta-hslV, growth: N-lim chemostat, doubling time 6 h
[2] = E. coli NCM3722 delta-clpP, growth: N-lim chemostat, doubling time 6 h
[3] = E. coli NCM3722 delta-hslV, growth: N-lim chemostat, doubling time 6 h
[4] = E. coli NCM3722 delta-lon, growth: N-lim chemostat, doubling time 6 h
[5] = E. coli NCM3722 delta-smpB, growth: N-lim chemostat, doubling time 6 h
[6] = wild type E. coli NCM3722, growth: C-lim chemostat, doubling time 3 h
[7] = wild type E. coli NCM3722, growth: C-lim chemostat, doubling time 6 h
[8] = wild type E. coli NCM3722, growth: C-lim chemostat, doubling time 12 h
[9] = wild type E. coli NCM3722, growth: N-lim chemostat, doubling time 6 h
[10] = wild type E. coli NCM3722, growth: N-lim chemostat, doubling time 12 h
[11] = wild type E. coli NCM3722, growth: P-lim chemostat, doubling time 6 h
[12] = wild type E. coli NCM3722, growth: P-lim chemostat, doubling time 12 h

Sequence | total protein half-life in vivo [1] [h] | total protein half-life in vivo [2] [h] | total protein half-life in vivo [3] [h] | total protein half-life in vivo [4] [h] | total protein half-life in vivo [5] [h] | total protein half-life in vivo [6] [h] | total protein half-life in vivo [7] [h] | total protein half-life in vivo [8] [h] | total protein half-life in vivo [9] [h] | total protein half-life in vivo [10] [h] | total protein half-life in vivo [11] [h] | total protein half-life in vivo [12] [h]
MSSLQILQGTFRLSDTKTLQLPQLTLNAGDSWAFVGSNGSGKSALARALAGELPLLKGERQSQFSHITRLSFEQLQKLVSDEWQRNNTDMLGPGEDDTGRTTAEIIQDEVKDAPRCMQLAQQFGITALLDRRFKYLSTGETRKTLLCQALMSEPDLLILDEPFDGLDVASRQQLAERLASLHQSGITLVLVLNRFDEIPEFVQFAGVLADCTLAETGAKEELLQQALVAQLAHSEQLEGVQLPEPDEPSARHALPANEPRIVLNNGVVSYNDRPILNNLSWQVNPGEHWQIVGPNGAGKSTLLSLVTGDHPQGYSNDLTLFGRRRGSGETIWDIKKHIGYVSSSLHLDYRVSTTVRNVILSGYFDSIGIYQAVSDRQQKLVQQWLDILGIDKRTADAPFHSLSWGQQRLALIVRALVKHPTLLILDEPLQGLDPLNRQLIRRFVDVLISEGETQLLFVSHHAEDAPACITHRLEFVPDGGLYRYVLTKIY | 4.48 ± 0.27 | 4.73 ± 1.6 | 3.5748 ± 0.0019 | 4.54 ± 0.7 | 4 ± 0.68 | 2.84 ± 0.087 | 5.233 ± 0.03 | 9.21 ± 0.47 | 3.942 ± 0.016 | 5.56 ± 0.14 | 5.68 ± 0.2 | 12 ± 0.93
MSSLSQAASSVEKRTNARYWIVVMLFIVTSFNYGDRATLSIAGSEMAKDIGLDPVGMGYVFSAFSWAYVIGQIPGGWLLDRFGSKRVYFWSIFIWSMFTLLQGFVDIFSGFGIIVALFTLRFLVGLAEAPSFPGNSRIVAAWFPAQERGTAVSIFNSAQYFATVIFAPIMGWLTHEVGWSHVFFFMGGLGIVISFIWLKVIHEPNQHPGVNKKELEYIAAGGALINMDQQNTKVKVPFSVKWGQIKQLLGSRMMIGVYIGQYCINALTYFFITWFPVYLVQARGMSILKAGFVASVPAVCGFIGGVLGGIISDWLMRRTGSLNIARKTPIVMGMLLSMVMVFCNYVNVEWMIIGFMALAFFGKGIGALGWAVMADTAPKEISGLSGGLFNMFGNISGIVTPIAIGYIVGTTGSFNGALIYVGVHALIAVLSYLVLVGDIKRIELKPVAGQ |  |  |  |  |  |  | 5.06 |  |  |  |  | 
MSSNTFTLGTKSVNRLGYGAMQLAGPGVFGPPRDRHVAITVLREALALGVNHIDTSDFYGPHVTNQIIREALYPYSDDLTIVTKIGARRGEDASWLPAFSPAELQKAVHDNLRNLGLDVLDVVNLRVMMGDGHGPAEGSIEASLTVLAEMQQQGLVKHIGLSNVTPTQVAEARKIAEIVCVQNEYNIAHRADDAMIDALAHDGIAYVPFFPLGGFTPLQSSTLSDVAASLGATPMQVALAWLLQRSPNILLIPGTSSVAHLRENMAAEKLHLSEEVLSTLDGISRE | 5.35 ± 0.76 | 4.8 ± 0.14 | 4.87 | 4.74 ± 1 | 4.18 ± 0.88 | 3.27 ± 0.3 | 5.527 ± 0.039 | 10.8 ± 0.75 | 5.01 | 8.77 | 6.443 ± 0.061 | 12.2 ± 0.21
MSSRKELANAIRALSMDAVQKAKSGHPGAPMGMADIAEVLWRDFLKHNPQNPSWADRDRFVLSNGHGSMLIYSLLHLTGYDLPMEELKNFRQLHSKTPGHPEVGYTAGVETTTGPLGQGIANAVGMAIAEKTLAAQFNRPGHDIVDHYTYAFMGDGCMMEGISHEVCSLAGTLKLGKLIAFYDDNGISIDGHVEGWFTDDTAMRFEAYGWHVIRDIDGHDAASIKRAVEEARAVTDKPSLLMCKTIIGFGSPNKAGTHDSHGAPLGDAEIALTREQLGWKYAPFEIPSEIYAQWDAKEAGQAKESAWNEKFAAYAKAYPQEAAEFTRRMKGEMPSDFDAKAKEFIAKLQANPAKIASRKASQNAIEAFGPLLPEFLGGSADLAPSNLTLWSGSKAINEDAAGNYIHYGVREFGMTAIANGISLHGGFLPYTSTFLMFVEYARNAVRMAALMKQRQVMVYTHDSIGLGEDGPTHQPVEQVASLRVTPNMSTWRPCDQVESAVAWKYGVERQDGPTALILSRQNLAQQERTEEQLANIARGGYVLKDCAGQPELIFIATGSEVELAVAAYEKLTAEGVKARVVSMPSTDAFDKQDAAYRESVLPKAVTARVAVEAGIADYWYKYVGLNGAIVGMTTFGESAPAELLFEEFGFTVDNVVAKAKELL | 3.63 ± 0.31 | 3.35 ± 0.19 | 3.03 ± 0.057 | 3.47 ± 0.1 | 3.033 ± 0.021 | 3.22 ± 0.077 | 5.19 ± 0.23 | 9.96 ± 0.12 | 3.15 ± 0.11 | 4.48 ± 0.056 | 5.65 ± 0.089 | 10.7 ± 0.21
MSTFKPLKTLTSRRQVLKAGLAALTLSGMSQAIAKDELLKTSNGHSKPKAKKSGGKRVVVLDPGHGGIDTGAIGRNGSKEKHVVLAIAKNVRSILRNHGIDARLTRSGDTFIPLYDRVEIAHKHGADLFMSIHADGFTNPKAAGASVFALSNRGASSAMAKYLSERENRADEVAGKKATDKDHLLQQVLFDLVQTDTIKNSLTLGSHILKKIKPVHKLHSRNTEQAAFVVLKSPSVPSVLVETSFITNPEEERLLGTAAFRQKIATAIAEGVISYFHWFDNQKAHSKKR | 5.02 ± 0.67 | 5.75 ± 0.35 | 4.89 ± 0.52 | 4.977 ± 0.029 | 4.41 ± 0.32 | 2.23 ± 0.033 | 3.5509 ± 0.0011 | 5 ± 0.2 | 5.08 ± 0.94 | 8.42 ± 0.29 | 4.48 ± 0.47 | 8.52 ± 0.41
MSTIEERVKKIIGEQLGVKQEEVTNNASFVEDLGADSLDTVELVMALEEEFDTEIPDEEAEKITTVQAAIDYINGHQA [P0A6A8] | 7.12 ± 0.32 | 5.957 ± 0.032 | 5.79 ± 0.28 | 7.19 ± 0.17 | 4.78 ± 1.6 | 3.14 ± 0.069 | 4.95 ± 1.3 | 8.88 ± 0.96 | 4 ± 0.13 |  | 5 ± 1.2 | 10.8 ± 0.47
